Biological target: T1, C-reactive protein (CRP) from human pleural fluid (human) (UniProt P02741)
T1 sequence: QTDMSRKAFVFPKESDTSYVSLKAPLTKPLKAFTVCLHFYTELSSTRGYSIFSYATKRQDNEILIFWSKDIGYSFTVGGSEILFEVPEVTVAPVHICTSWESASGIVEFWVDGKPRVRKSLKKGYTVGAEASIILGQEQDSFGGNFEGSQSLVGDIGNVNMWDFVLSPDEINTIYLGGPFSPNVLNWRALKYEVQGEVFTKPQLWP
Experiment: ELISA; phage screening ELISA: CRP 0.25 ug/well coated overnight at 4 C on MaxiSorp, saturated with 3% BSA-PBS; phages in culture supernatant (100 uL, not normalised) 2 h at room temperature; anti-M13 HRP, TMB, absorbance at 450 nm; ratio of the CRP signal to the BSA control, triplicates

B1: anti-CRP nanobody H7 displayed on phage (VHH)
VHH: EVQLQASGGGLVQAGGSLRLSCAASGRTFSSYATGWYRQAPGKERELVAAISSGGSTYYADSVKGRFTISRDNAKNTVYLQMNSLKAEDTAVYYCAGGRRVGVLIGNEYDYWGQGTLVTVSS
- Screening ELISA (CRP/BSA Signal): 7.1
